pKd: −log10 of the molar value. Values belong to the substance of their own block, whether it stands above or below them.
Assays:
[1] = target: HisKIX (His-tagged CBP KIX domain) (UniProt P45481); experiment: fluorescence polarization at 150 µM HisKIX
[2] = target: catalytic subunit of cAMP-dependent protein kinase (PKA); experiment: cell-based or functional assay
[3] = target: endogenous CBP/p300 in HEK293 cells; experiment: cell-based or functional assay
[4] = target: full-length p300 (exogenous, CMV expression vector); experiment: cell-based or functional assay
[5] = target: CBP KIX variant E655A (UniProt P45481); experiment: fluorescence polarization
[6] = target: CBP KIX variant I657A (UniProt P45481); experiment: fluorescence polarization
[7] = target: CBP KIX variant I660A (UniProt P45481); experiment: fluorescence polarization
[8] = target: CBP KIX variant K606A (UniProt P45481); experiment: fluorescence polarization
[9] = target: CBP KIX variant K662A (UniProt P45481); experiment: fluorescence polarization
[10] = target: CBP KIX variant L599A (UniProt P45481); experiment: fluorescence polarization
[11] = target: CBP KIX variant L603A (UniProt P45481); experiment: fluorescence polarization
[12] = target: CBP KIX variant LL652-3AA (UniProt P45481); experiment: fluorescence polarization
[13] = target: CBP KIX variant Q661A (UniProt P45481); experiment: fluorescence polarization
[14] = target: CBP KIX variant Y650A (Example 20) (UniProt P45481); experiment: fluorescence polarization
[15] = target: CBP KIX variant Y658A (UniProt P45481); experiment: fluorescence polarization
[16] = target: CBP KIX variant Y658F (UniProt P45481); experiment: fluorescence polarization
[17] = target: GST-KIXY650A (Y650A variant of CBP KIX) (UniProt P45481); experiment: fluorescence polarization
[18] = target: HisKIX (His-tagged CBP KIX domain) (UniProt P45481); experiment: fluorescence polarization at 325 µM HisKIX

CBP KIX variant L603A, sequence (P45481 586-665 L603A limits assumed): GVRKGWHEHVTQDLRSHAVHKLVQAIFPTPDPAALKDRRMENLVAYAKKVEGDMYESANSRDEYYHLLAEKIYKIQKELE
CBP KIX variant K606A, sequence (P45481 586-665 K606A limits assumed): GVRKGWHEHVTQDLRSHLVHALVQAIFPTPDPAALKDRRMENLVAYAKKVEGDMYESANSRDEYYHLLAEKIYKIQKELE
CBP KIX variant LL652-3AA, sequence (P45481 other isoform, or with tags, fused parts or gaps mutant limits assumed): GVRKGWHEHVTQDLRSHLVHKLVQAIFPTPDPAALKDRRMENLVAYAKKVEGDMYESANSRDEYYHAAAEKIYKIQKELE
CBP KIX variant I660A, sequence (P45481 586-665 I660A limits assumed): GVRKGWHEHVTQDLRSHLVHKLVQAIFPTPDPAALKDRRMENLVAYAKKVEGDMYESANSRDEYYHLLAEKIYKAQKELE
CBP KIX variant L599A, sequence (P45481 586-665 L599A limits assumed): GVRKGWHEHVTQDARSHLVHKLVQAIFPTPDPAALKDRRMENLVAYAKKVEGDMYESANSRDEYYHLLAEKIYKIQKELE
CBP KIX variant E655A, sequence (P45481 586-665 E655A limits assumed): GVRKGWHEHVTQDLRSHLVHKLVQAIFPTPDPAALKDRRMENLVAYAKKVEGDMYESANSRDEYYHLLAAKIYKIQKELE
HisKIX (His-tagged CBP KIX domain), sequence (P45481 586-672): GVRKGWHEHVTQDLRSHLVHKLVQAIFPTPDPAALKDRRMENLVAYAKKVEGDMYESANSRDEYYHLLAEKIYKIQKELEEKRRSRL
CBP KIX variant Y658F, sequence (P45481 586-665 Y658F limits assumed): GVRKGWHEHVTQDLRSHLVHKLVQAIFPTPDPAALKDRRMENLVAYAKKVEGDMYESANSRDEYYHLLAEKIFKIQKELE
CBP KIX variant K662A, sequence (P45481 586-665 K662A limits assumed): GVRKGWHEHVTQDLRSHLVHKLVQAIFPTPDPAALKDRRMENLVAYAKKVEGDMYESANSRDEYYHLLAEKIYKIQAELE
CBP KIX variant I657A, sequence (P45481 586-665 I657A limits assumed): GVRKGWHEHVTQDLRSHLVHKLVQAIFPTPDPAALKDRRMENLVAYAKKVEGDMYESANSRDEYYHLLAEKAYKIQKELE
CBP KIX variant Y650A (Example 20), sequence (P45481 586-665 Y650A limits assumed): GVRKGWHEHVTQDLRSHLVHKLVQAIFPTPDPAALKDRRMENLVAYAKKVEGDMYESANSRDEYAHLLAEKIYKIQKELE
CBP KIX variant Q661A, sequence (P45481 586-665 Q661A limits assumed): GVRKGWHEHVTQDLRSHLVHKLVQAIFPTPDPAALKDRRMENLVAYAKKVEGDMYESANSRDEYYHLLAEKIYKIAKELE
CBP KIX variant Y658A, sequence (P45481 586-665 Y658A limits assumed): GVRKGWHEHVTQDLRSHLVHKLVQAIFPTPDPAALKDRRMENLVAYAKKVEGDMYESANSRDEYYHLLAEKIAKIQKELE
GST-KIXY650A (Y650A variant of CBP KIX), sequence (P45481 586-665 Y650A limits assumed): as the sequence (P45481 586-665 Y650A limits assumed) above

Substance: PKI^A21C alkylated with bromoacetamide (peptide)
IC50, inhibition of PKA phosphotransferase activity [2]: > 1 µM

Substance: Gal4 DBD (residues 1-147) fusion of KID-AB (from UniProt P04386 1-147)
fold activation of Gal4 luciferase reporter in HEK293 cells, with forskolin [3]: 7.5 fold
fold activation of Gal4 luciferase reporter, with forskolin and exogenous p300 [4]: 20 fold

Substance: KID-AB^P (full-length CREB KID domain, residues 119-148, phosphorylated), fluorescein-labelled (peptide)
pKd [5]: 6.15
ΔΔG against wild type CBP KIX [5]: 0.32 kcal/mol
pKd [6]: 5.72
ΔΔG against wild type CBP KIX [6]: 0.9 kcal/mol
pKd [7]: 6.57
ΔΔG against wild type CBP KIX [7]: -0.26 kcal/mol
pKd [8]: 5.64
ΔΔG against wild type CBP KIX [8]: 1 kcal/mol
pKd [9]: 5.32
ΔΔG against wild type CBP KIX [9]: 1.5 kcal/mol
pKd [10]: 5.96
ΔΔG against wild type CBP KIX [10]: 0.58 kcal/mol
pKd [11]: 5.47
ΔΔG against wild type CBP KIX [11]: 1.2 kcal/mol
pKd [12]: 5.54
ΔΔG against wild type CBP KIX [12]: 1.2 kcal/mol
pKd [13]: 6.03
ΔΔG against wild type CBP KIX [13]: 0.48 kcal/mol
pKd [14]: 5.03
ΔΔG against wild type CBP KIX [14]: 1.8 kcal/mol
pKd [15]: 3.85
ΔΔG against wild type CBP KIX [15]: 3.5 kcal/mol
pKd [16]: 4.59
ΔΔG against wild type CBP KIX [16]: 2.5 kcal/mol
fold less stable than the wild type GST-KIX complex [17]: 15 fold

Second part, the substance after the results:

change in polarization [1]: 61 mP
Substance: KID-AB^U, fluorescein-labelled (peptide)

change in polarization [18]: 76 mP
Substance: KID-B^U, fluorescein-labelled (peptide)

Source: patent publication US20050287542A1
